Measurements published in patent US8067371.

Tests used:
[1] = target: RAGE 82G/82S on human mononuclear phagocytes of heterozygous subjects (human) (UniProt Q15109); assay: cell-based or functional assay
[2] = target: human RAGE 82G (common allele, full-length) (human) (UniProt Q15109); assay: cell-based or functional assay
[3] = target: human RAGE 82S (variant allele, G82S) (human) (UniProt Q15109); assay: cell-based or functional assay
[4] = target: human RAGE 82G (common allele, full-length) (human) (UniProt Q15109); assay: radioligand binding of 125I-EN-RAGE on stably transfected CHO cells, equilibrium analysis by Klotz and Hunston
[5] = target: human RAGE 82S (variant allele, G82S) (human) (UniProt Q15109); assay: as above

EN-RAGE-mediated MMP-9 activity, MPs bearing RAGE 82G/82S against RAGE 82G [1]: 1.9 fold | IL-6 in EN-RAGE-stimulated MPs, RAGE 82G/82S compared with RAGE 82G [1]: 2.9 fold | IL-6 in culture supernatant (ELISA), human MPs bearing RAGE 82G/82S exposed to EN-RAGE [1]: 160 pg/mL | MMP-9 activity (zymography), human MPs bearing RAGE 82G/82S, EN-RAGE against baseline [1]: 4.3 fold | TNF-alpha in EN-RAGE-stimulated MPs, RAGE 82G/82S compared with RAGE 82G [1]: 1.8 fold | TNF-alpha in culture supernatant (ELISA), human MPs bearing RAGE 82G/82S exposed to EN-RAGE [1]: 850 pg/mL | phosphorylated MEK 1/2, human MPs, EN-RAGE against unstimulated cells [1]: 4.5 fold | phosphorylated p44 and p42 MAP kinases, human MPs, EN-RAGE against unstimulated cells [1]: 4.3 fold | IL-6 in culture supernatant (ELISA), human MPs bearing RAGE 82G exposed to EN-RAGE [2]: 55 pg/mL | MMP-9 activity (zymography), human MPs bearing RAGE 82G, EN-RAGE against basal [2]: 2.3 fold | NF-kB nuclear binding activity by EMSA, CHO transfectants, EN-RAGE against BSA [2]: 2.4 fold | TNF-alpha in culture supernatant (ELISA), human MPs bearing RAGE 82G exposed to EN-RAGE [2]: 470 pg/mL | activation of MEK 1/2, human MPs bearing RAGE 82G, EN-RAGE against unstimulated cells [2]: 2.6 fold | activation of p44/p42 MAP kinases, human MPs bearing RAGE 82G, EN-RAGE against unstimulated cells [2]: 2.3 fold | phosphorylated MEK 1/2 by immunoblotting, CHO transfectants, EN-RAGE 10 ug/ml against BSA [2]: 2.2 fold | phosphorylated p44/42 MAP kinases by immunoblotting, CHO transfectants, EN-RAGE 10 ug/ml against BSA [2]: 1.9 fold | NF-kB gel shift band intensity by EMSA, CHO transfectants, EN-RAGE against BSA [3]: 5.1 fold | RAGE-mediated NF-kB activation, RAGE 82S compared with 82G [3]: 2.1 fold | phosphorylated MEK 1/2 by immunoblotting, CHO transfectants, EN-RAGE 10 ug/ml against BSA [3]: 3.6 fold | phosphorylated p44/42 MAP kinases by immunoblotting, CHO transfectants, EN-RAGE 10 ug/ml against BSA [3]: 4.1 fold | phosphorylation of MEK 1/2, CHO cells with RAGE 82S compared with RAGE 82G [3]: 1.6 fold | phosphorylation of p44/p42 MAP kinases, CHO cells with RAGE 82S compared with RAGE 82G [3]: 2.2 fold | Kd [4]: 122 nM | Kd [5]: 77 nM
B1: EN-RAGE (Extracellular Newly-Identified RAGE binding protein) (ligand, from a related filing)
chain: TKLEDHLEGIINIFHQYSVRVGHFDTLNKRELKQLITKELPKTLQNTKDQPTIDKIFQDLDADKDGAVSFEEFVVLVSRVLKTAHIDIHK
